Values of other authors in patent US11458170B2, “Pharmaceutical composition comprising erythrocytes encapsulating a PLP-dependent enzyme and, a non-phosphate PLP precursor” (ERYTECH PHARMA, priority 2014, dated 2022).

How the values were obtained:
[1] = in vivo
[2] = not given; remark: listed apart in the source

Compound: Cc1ncc(COP(=O)(O)O)c(C=O)c1O [PLP, pyridoxal phosphate]
- Plasma half-life of free PLP [1]: about 15 minutes

Compound: rMETase: recombinant methioninase produced in Escherichia coli from the Pseudomonas putida gene (Sun et al.)
- Plasma activity of the enzyme (24 h after IV injection, immunodeficient mice, determined in vitro without adding PLP): undetectable
- Half-life in mice (mice): 2 h
- Treated animals developing anti-rMETase antibodies (IgG, IgM) ([2]; macaques): four out of six
- Death after anaphylactic shock ([2]; second IV injection 28 days after the first): death of one of the two animals
- Anaphylactic shock after second injection ([2]; second IV injection 28 days after the first, six monkeys): in two monkeys an anaphylactic shock
